# Patent US20150024465A1, “Carbohydrate-Binding Modules of a New Family” (Novozymes A/S, priority 2003, published 2015)
# Legend:
# [1] = Competition binding assay, references without soluble carbohydrate
# Method: (§1) Affinity of CBMX for a number of soluble carbohydrates was tested in a competition assay by mixing 100 μl CBMX with both Avicel® (400 μl 50 mg/ml in 20 mM Tris, pH 7.5) and the soluble carbohydrate (dissolved in 500 μl 20 mM Tris, pH 7.5). As references, samples without CBMX or soluble carbohydrate added were used. If CBMX has affinity for the soluble carbohydrate it should be able to keep CBMX in solution which can be measured as increase in absorbance at 280 nm compared to sample without soluble carbohydrate added. After 4 hours incubation at room temperature with agitation, samples were centrifuged and absorbance at 280 nm was read using 200 μl supernatant in the well of a microtiter UV plate. Tested soluble carbohydrates were barley β-glucan (Megazyme, low viscosity), lichenan (Megazyme, Icelandic moss), CMC (carboxymethyl cellulose 7LF, Hercules, USA), Xyloglucan (Megazyme, amyloid, from tamarind seed), lupin galactan (Megazyme) and Locust bean gum (Sigma, G-0753).
# [2] = Binding of CBMX to Avicel (A280 of supernatant after incubation and centrifugation); settings: for A280: Absorbance at 280 nm of 200 μl supernatant, absorbance of buffer and Avicel subtracted: 20 mM Tris pH 7.5, 4 hours room temperature
# Method: The carbohydrate-binding domain with affinity for Avicel® and purified as described in Example 2 (CBMX) was studied further. 50 μl purified CBMX was mixed with 500 μl 20 mM Tris, pH 7.5 containing varying amount of Avicel® (0-100 mg/ml) in an Eppendorf tube. After 4 hours incubation at room temperature with agitation, the samples were centrifuged. 200 μl supernatant was transferred to the well of a microtiter plate (Costar, UV plate) and absorbance read at 280 nm on a microtiter plate reader (SpectraMax® Plus, Molecular Devices).
# [3] = Binding of CBMX to PASC (A280 of supernatant); settings: for A280: Absorbance at 280 nm of 200 μl supernatant, absorbance of buffer subtracted: 20 mM Tris pH 7.5, 4 hours room temperature
# Method: A similar binding study was performed with PASC (Phosphoric Acid Swollen Cellulose: To 5 g Avicel® moisted with water 150 ml ice-cold 85 ortho-phosphoric acid is added. After 1 hour stirring on ice bath, 500 ml cold acetone is added. The suspension is filtered and washed, first with acetone and then with water). 50 μl purified CBMX was mixed with 500 μl 20 mM Tris, pH 7.5 containing varying amount of PASO (0-10 mg/ml) in an Eppendorf tube. Samples were incubated 4 hours at room temperature with agitation. After centrifugation, 200 μl supernatant was transferred to the well of a microtiter plate and absorbance read at 280 nm.
# [4] = Binding of CBMX to Avicel (A280 of supernatant after incubation and centrifugation); settings: shorter incubation time (15 min to 1 hour) compared with 4 hours
# [5] = Competition binding assay with CBMX, Avicel and soluble carbohydrate; settings: for Difference in A280 between samples with and without CBMX added: Avicel 20 mg/ml, 4 hours room temperature; for Share of CBMX kept in solution by the soluble carbohydrate (in words): competition with Avicel
# Method: as §1
molecule,measurement,setting,value
"CBMX: Carbohydrate-binding module of Pseudoplectania nigrella GH61 (positions 34-174 of SEQ ID NO:2), expressed in Aspergillus oryzae, purified on Avicel (protein, listed as Pseudoplectania nigrella) SSGTSNDKAVASSSIAAVDPVTSSVVASVQVPNFTATDVPTFTATDIPTFTATDVPIFTKKPQQPSTLLTRTRTHASVSFVAKPSAFIPKPSASTIPSKPKTPEEVNKCLDAVNACITQAQSSIGGVVNFEPCESQRALCY",Difference in A280 between samples with and without CBMX added,"[1]; None - Only Avicel (20 mg/ml) and CBMX, no soluble carbohydrate",0.018
same,Difference in A280 between samples with and without CBMX added,"[1]; None - Only CBMX, no Avicel",0.108
same,"A280: Absorbance at 280 nm of 200 μl supernatant, absorbance of buffer and Avicel subtracted",[2]; Avicel 0.0 mg/ml (CBMX alone),0.0768
same,"A280: Absorbance at 280 nm of 200 μl supernatant, absorbance of buffer and Avicel subtracted",[2]; Avicel 0.391 mg/ml,0.0777
same,"A280: Absorbance at 280 nm of 200 μl supernatant, absorbance of buffer and Avicel subtracted",[2]; Avicel 0.781 mg/ml,0.0808
same,"A280: Absorbance at 280 nm of 200 μl supernatant, absorbance of buffer and Avicel subtracted",[2]; Avicel 1.563 mg/ml,0.0799
same,"A280: Absorbance at 280 nm of 200 μl supernatant, absorbance of buffer and Avicel subtracted",[2]; Avicel 3.125 mg/ml,0.0729
same,"A280: Absorbance at 280 nm of 200 μl supernatant, absorbance of buffer and Avicel subtracted",[2]; Avicel 6.25 mg/ml,0.0637
same,"A280: Absorbance at 280 nm of 200 μl supernatant, absorbance of buffer and Avicel subtracted",[2]; Avicel 12.5 mg/ml,0.0540
same,"A280: Absorbance at 280 nm of 200 μl supernatant, absorbance of buffer and Avicel subtracted",[2]; Avicel 25 mg/ml,0.0326
same,"A280: Absorbance at 280 nm of 200 μl supernatant, absorbance of buffer and Avicel subtracted",[2]; Avicel 50 mg/ml,0.0185
same,"A280: Absorbance at 280 nm of 200 μl supernatant, absorbance of buffer and Avicel subtracted",[2]; Avicel 100 mg/ml,0.0095
same,Share of the protein that binds to Avicel (in words),"[2]; highest concentrations of Avicel, 4 hours incubation",large majority of the protein binds
same,Affinity for Avicel (in words),[2]; summary statement,shown to have affinity
same,"A280: Absorbance at 280 nm of 200 μl supernatant, absorbance of buffer subtracted",[3]; PASC 0.0 mg/ml (CBMX alone),0.0753
same,"A280: Absorbance at 280 nm of 200 μl supernatant, absorbance of buffer subtracted",[3]; PASC 0.625 mg/ml,0.0682
same,"A280: Absorbance at 280 nm of 200 μl supernatant, absorbance of buffer subtracted",[3]; PASC 1.25 mg/ml,0.0710
same,"A280: Absorbance at 280 nm of 200 μl supernatant, absorbance of buffer subtracted",[3]; PASC 2.5 mg/ml,0.0618
same,"A280: Absorbance at 280 nm of 200 μl supernatant, absorbance of buffer subtracted",[3]; PASC 5 mg/ml,0.0512
same,"A280: Absorbance at 280 nm of 200 μl supernatant, absorbance of buffer subtracted",[3]; PASC 10 mg/ml,0.0471
same,Affinity for PASC (in words),[3]; increasing amount of PASC reduces absorbance of CBMX in the supernatant,has affinity
same,Completeness of binding to Avicel (in words),[4],less complete binding
same,Difference in A280 between samples with and without CBMX added,[5]; CMC 25 mg/ml,0.129
same,Share of CBMX kept in solution by the soluble carbohydrate (in words),[5]; CMC,almost all
same,Difference in A280 between samples with and without CBMX added,[5]; Galactan 20 mg/ml,0.043
same,Difference in A280 between samples with and without CBMX added,[5]; Lichenan 20 mg/ml,0.025
same,Difference in A280 between samples with and without CBMX added,[5]; Locust bean gum 25 mg/ml,0.087
same,Difference in A280 between samples with and without CBMX added,[5]; Xyloglucan 11 mg/ml,0.052
same,Difference in A280 between samples with and without CBMX added,[5]; beta-Glucan 20 mg/ml,0.100
same,Share of CBMX kept in solution by the soluble carbohydrate (in words),[5]; beta-glucan,almost all
same,Affinity of CBMX for the soluble carbohydrate (in words),[5]; galactan,to some extent
same,Share of CBMX kept in solution by the soluble carbohydrate (in words),[5]; galactan,about half
same,Affinity of CBMX for the soluble carbohydrate (in words),[5]; lichenan,no affinity
same,Share of CBMX kept in solution by the soluble carbohydrate (in words),[5]; lichenan,does not result in any increase
same,Share of CBMX kept in solution by the soluble carbohydrate (in words),[5]; locust bean gum,the majority
same,Affinity of CBMX for the soluble carbohydrate (in words),[5]; xyloglucan,to some extent
same,Share of CBMX kept in solution by the soluble carbohydrate (in words),[5]; xyloglucan,about half
